Reference: publication PMC13279940

Molecular target: Pseudomonas aeruginosa QatC with C-terminal 6xHis tag (Pseudomonas aeruginosa)
Test: mass photometry; Refeyn TwoMP; purified protein diluted to 200 nM in gel filtration buffer (20 mM HEPES-KOH pH 7.5, 250 mM KCl, 1 mM TCEP), 1 uL mixed into a 16 uL drop; QatA in the absence of DNA

With “Pseudomonas aeruginosa QatB (natural protein)” as the substance, how does the stoichiometry N read?
Its stoichiometry N is 1.
